Source: patent US20240002531A1 (ONO PHARMACEUTICAL, published 2024)
Where two headings read alike, the source gives them in different places.

Columns and labels:
[1] = target: T1, HER2 peptide p603-622 (amino acids 603 to 622 of human HER2) (human); experiment: SPR Biacore, mAb on chip, peptide analyte, 1:1 fit; Table 2 (deletion mutants series);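 as to Kd: all binding measurements run at 25 °C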;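 as to koff: all binding measurements run at 25 °C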
T1 construct: Synthetic peptide; also called wild-type HER2 peptide
T1 peptide: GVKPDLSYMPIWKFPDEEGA

[2] = target: T2, HER2 peptide p612-618 (human); experiment: SPR Biacore, mAb on chip, peptide analyte, 1:1 fit
T2 construct: also called PIWKFPD
T2 peptide: PIWKFPD

[3] = target: T3, HER2 peptide p610-618 (human); experiment: SPR Biacore, mAb on chip, peptide analyte, 1:1 fit;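 also: all binding measurements run at 25 °C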
T3 peptide: YMPIWKFPD

[4] = target: T1, HER2 peptide p603-622 (amino acids 603 …); experiment: SPR Biacore, mAb on chip, peptide analyte, 1:1 fit
[5] = target: T4, HER2 peptide p609-619 (human); experiment: SPR Biacore, mAb on chip, peptide analyte, 1:1 fit;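 also: all binding measurements run at 25 °C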
T4 peptide: SYMPIWKFPDE

[6] = target: T5, HER2 peptide p614-622 (human); experiment: SPR Biacore, mAb on chip, peptide analyte, 1:1 fit
T5 peptide: WKFPDEEGA

[7] = target: T6, HER2 peptide p613-621 (human); experiment: SPR Biacore, mAb on chip, peptide analyte, 1:1 fit;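 also: all binding measurements run at 25 °C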
T6 peptide: IWKFPDEEG

[8] = target: T7, HER2 peptide p609-618 (human); experiment: SPR Biacore, mAb on chip, peptide analyte, 1:1 fit
T7 peptide: SYMPIWKFPD

[9] = target: T8, HER2 peptide p613-618 (human); experiment: SPR Biacore, mAb on chip, peptide analyte, 1:1 fit;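 also: all binding measurements run at 25 °C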
T8 peptide: IWKFPD

[10] = target: T9, HER2 peptide p611-618 (human); experiment: SPR Biacore, mAb on chip, peptide analyte, 1:1 fit;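 also: all binding measurements run at 25 °C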
T9 peptide: MPIWKFPD

[11] = target: T10, HER2 peptide p614-619 (human); experiment: SPR Biacore, mAb on chip, peptide analyte, 1:1 fit;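 also: all binding measurements run at 25 °C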
T10 peptide: WKFPDE

[12] = target: T11, HER2 peptide p609-621 (human); experiment: SPR Biacore, mAb on chip, peptide analyte, 1:1 fit
T11 peptide: SYMPIWKFPDEEG

[13] = target: T12, HER2 peptide p609-620 (human); experiment: SPR Biacore, mAb on chip, peptide analyte, 1:1 fit
T12 peptide: SYMPIWKFPDEE

[14] = target: T13, HER2 peptide p614-621 (human); experiment: SPR Biacore, mAb on chip, peptide analyte, equilibrium analysis
T13 peptide: WKFPDEEG

[15] = target: T14, HER2 peptide p613-622 (human); experiment: as above
T14 peptide: IWKFPDEEGA

[16] = target: T2, HER2 peptide p612-618; experiment: SPR Biacore, mAb on chip, peptide analyte, 1:1 fit
[17] = target: T5, HER2 peptide p614-622; experiment: SPR Biacore, mAb on chip, peptide analyte, 1:1 fit
[18] = target: T15, HER2 peptide p610-619 (human); experiment: SPR Biacore, mAb on chip, peptide analyte, 1:1 fit
T15 peptide: YMPIWKFPDE

[19] = target: T7, HER2 peptide p609-618; experiment: SPR Biacore, mAb on chip, peptide analyte, 1:1 fit
[20] = target: T16, HER2 peptide p612-620 (human); experiment: SPR Biacore, mAb on chip, peptide analyte, 1:1 fit
T16 peptide: PIWKFPDEE

[21] = target: T17, HER2 peptide p611-620 (human); experiment: SPR Biacore, mAb on chip, peptide analyte, 1:1 fit
T17 peptide: MPIWKFPDEE

[22] = target: T18, HER2 peptide p610-622 (human); experiment: SPR Biacore, mAb on chip, peptide analyte, 1:1 fit
T18 peptide: YMPIWKFPDEEGA

[23] = target: T19, HER2 peptide p610-621 (human); experiment: SPR Biacore, mAb on chip, peptide analyte, 1:1 fit
T19 peptide: YMPIWKFPDEEG

[24] = target: T20, HER2 peptide p611-619 (human); experiment: SPR Biacore, mAb on chip, peptide analyte, 1:1 fit
T20 peptide: MPIWKFPDE

[25] = target: T21, HER2 peptide p611-621 (human); experiment: SPR Biacore, mAb on chip, peptide analyte, 1:1 fit
T21 peptide: MPIWKFPDEEG

[26] = target: T22, HER2 peptide p610-620 (human); experiment: SPR Biacore, mAb on chip, peptide analyte, 1:1 fit
T22 peptide: YMPIWKFPDEE

B1: H2Mab-214 antibody (antibody, V domains shown)
VH: QVTLKESGPGILQPSQTLSLTCSFSGFSLSTSGMGVSWIRQPSGKGLEWLAHIFWDDDKRYNPSLKSRLTISKDTSRNKVFLKITSVDTADTATYYCARRVVATDWYFDVWGAGTTVTVSS
VL: DIVLTQSPASLAVSLGQRATISCRASESVEYYGTTLMQWYQQKPGQPPKLLIYAASKVESGVPARFSGSGSGTDFSLNIHPVEEDDVAMYFCQQSRKVPLTFGAGTKLELKR
notes: Mouse monoclonal from a hybridoma (immunogen HER2ec made in LN229 cells); also called antibody of the present invention
kon [1]: 234000 M⁻¹ s⁻¹
Kd [2]: 27.7 nM
koff [2]: 0.013 s⁻¹
kon [2]: 467000 M⁻¹ s⁻¹
Kd [3]: 14.5 nM
koff [3]: 0.0121 s⁻¹
kon [3]: 837000 M⁻¹ s⁻¹
Kd [4]: 22.8 nM
koff [4]: 0.00534 s⁻¹
Kd [5]: 5.76 nM
koff [5]: 0.00449 s⁻¹
kon [5]: 779000 M⁻¹ s⁻¹
Kd [6]: 26400 nM
koff [6]: 0.0115 s⁻¹
kon [6]: 435 M⁻¹ s⁻¹
Kd [7]: 13000 nM
koff [7]: 0.00955 s⁻¹
kon [7]: 736 M⁻¹ s⁻¹
Kd [8]: 14.3 nM
koff [8]: 0.0107 s⁻¹
kon [8]: 747000 M⁻¹ s⁻¹
Kd [9]: 915 nM
koff [9]: 0.013 s⁻¹
kon [9]: 14200 M⁻¹ s⁻¹
Kd [10]: 21 nM
koff [10]: 0.0141 s⁻¹
kon [10]: 669000 M⁻¹ s⁻¹
Kd [11]: 8540 nM
koff [11]: 0.0119 s⁻¹
kon [11]: 1400 M⁻¹ s⁻¹
Kd [12]: 8.06 nM
koff [12]: 0.00465 s⁻¹
kon [12]: 577000 M⁻¹ s⁻¹
Kd [13]: 6.89 nM
koff [13]: 0.00445 s⁻¹
kon [13]: 645000 M⁻¹ s⁻¹
Kd [14]: 229000 nM
Kd [15]: 127000 nM

B2: H2Mab-250 antibody (antibody, V domains shown)
VH: EVQLVESGGGLVQPGGSLKLSCAASGFTFSNYGMSWVRQTPDRRLELVATINNNGGGTYYPDSVKGRFTISRDNAKNTLYLQMSSLKSEDTAMYYCTSPGLLWDAWGAGTTVTVSS
VL: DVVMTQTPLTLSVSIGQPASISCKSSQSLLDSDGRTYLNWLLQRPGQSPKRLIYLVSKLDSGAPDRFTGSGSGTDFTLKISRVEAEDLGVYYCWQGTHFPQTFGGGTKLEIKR
notes: as for B1
Kd [16]: 1.92 nM
koff [16]: 0.00057 s⁻¹
kon [16]: 296000 M⁻¹ s⁻¹
Kd [17]: 2910 nM
koff [17]: 0.00145 s⁻¹
kon [17]: 498 M⁻¹ s⁻¹
Kd [18]: 1.19 nM
koff [18]: 0.00038 s⁻¹
kon [18]: 319000 M⁻¹ s⁻¹
Kd [19]: 0.803 nM
koff [19]: 0.00021 s⁻¹
kon [19]: 262000 M⁻¹ s⁻¹
Kd [20]: 4.39 nM
koff [20]: 0.000756 s⁻¹
kon [20]: 172000 M⁻¹ s⁻¹
Kd [21]: 2.65 nM
koff [21]: 0.000387 s⁻¹
kon [21]: 146000 M⁻¹ s⁻¹
Kd [22]: 1.81 nM
koff [22]: 0.00033 s⁻¹
kon [22]: 183000 M⁻¹ s⁻¹
Kd [23]: 1.36 nM
koff [23]: 0.000347 s⁻¹
kon [23]: 256000 M⁻¹ s⁻¹
Kd [24]: 2.02 nM
koff [24]: 0.000487 s⁻¹
kon [24]: 240000 M⁻¹ s⁻¹
Kd [25]: 1.89 nM
koff [25]: 0.000411 s⁻¹
kon [25]: 218000 M⁻¹ s⁻¹
Kd [26]: 1.32 nM
koff [26]: 0.000342 s⁻¹
kon [26]: 260000 M⁻¹ s⁻¹
